# In publication PMC10836395, “Investigation of how gate residues in the main channel affect the catalytic activity of Scytalidium thermophilum catalase” (Acta Crystallographica. Section D, Structural Biology, 2024):
# Columns and labels:
# [1] = biological target: CATPO T188F variant (Scytalidium thermophilum (Humicola insolens), UniProt M4GGR5, T207F); experiment: biochemical
# [2] = biological target: CATPO T188D variant (Scytalidium thermophilum (Humicola insolens), UniProt M4GGR5, T207D); experiment: biochemical
# Sequence of CATPO T188D variant (M4GGR5 entry or part of it T207D): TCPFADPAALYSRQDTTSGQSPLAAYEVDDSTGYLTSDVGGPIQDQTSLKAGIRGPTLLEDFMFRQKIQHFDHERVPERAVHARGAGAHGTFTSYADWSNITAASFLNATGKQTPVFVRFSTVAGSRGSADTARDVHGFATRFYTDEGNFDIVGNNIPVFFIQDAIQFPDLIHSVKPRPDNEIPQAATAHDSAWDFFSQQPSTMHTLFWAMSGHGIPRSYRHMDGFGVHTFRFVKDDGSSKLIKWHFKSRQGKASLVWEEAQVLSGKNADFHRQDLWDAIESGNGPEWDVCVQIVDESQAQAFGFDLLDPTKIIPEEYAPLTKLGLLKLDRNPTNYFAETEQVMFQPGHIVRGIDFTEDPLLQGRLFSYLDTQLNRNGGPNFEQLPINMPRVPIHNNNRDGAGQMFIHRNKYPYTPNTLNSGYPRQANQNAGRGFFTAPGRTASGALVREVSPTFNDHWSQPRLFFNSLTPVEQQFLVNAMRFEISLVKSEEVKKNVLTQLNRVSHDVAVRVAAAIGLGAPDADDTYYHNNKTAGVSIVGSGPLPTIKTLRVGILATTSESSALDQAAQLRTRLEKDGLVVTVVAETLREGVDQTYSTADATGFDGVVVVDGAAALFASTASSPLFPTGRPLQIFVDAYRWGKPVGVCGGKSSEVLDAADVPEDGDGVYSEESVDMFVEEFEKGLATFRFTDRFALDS
# [3] = biological target: CATPO E484D variant (Scytalidium thermophilum (Humicola insolens), UniProt M4GGR5, E503D); experiment: biochemical
# Sequence of CATPO E484D variant (M4GGR5 entry or part of it E503D): as the sequence (M4GGR5 entry or part of it T207D) above
# [4] = biological target: CATPO E484I variant (Scytalidium thermophilum (Humicola insolens), UniProt M4GGR5, E503I); experiment: biochemical
# Sequence of CATPO E484I variant (M4GGR5 entry or part of it E503I): as the sequence (M4GGR5 entry or part of it T207D) above
# [5] = biological target: CATPO T188A variant (Scytalidium thermophilum (Humicola insolens), UniProt M4GGR5, T207A); experiment: biochemical
# Sequence of CATPO T188A variant (M4GGR5 entry or part of it T207A): as the sequence (M4GGR5 entry or part of it T207D) above
# [6] = biological target: CATPO (Scytalidium thermophilum (Humicola insolens), UniProt M4GGR5); experiment: Inhibition of catechol oxidation; assay type: biochemical
# Sequence of CATPO (M4GGR5 entry or part of it): as the sequence (M4GGR5 entry or part of it T207D) above
# [7] = biological target: CATPO T188I variant (Scytalidium thermophilum (Humicola insolens), UniProt M4GGR5, T207I); experiment: biochemical
# Sequence of CATPO T188I variant (M4GGR5 entry or part of it T207I): as the sequence (M4GGR5 entry or part of it T207D) above
# [8] = biological target: CATPO E484A variant (Scytalidium thermophilum (Humicola insolens), UniProt M4GGR5, E503A); experiment: biochemical
# Sequence of CATPO E484A variant (M4GGR5 entry or part of it E503A): as the sequence (M4GGR5 entry or part of it T207D) above
# [9] = substrate: Oc1ccccc1O; experiment: Phenol oxidase activity (H2O2-independent) measured spectrophotometrically by product formation at pH 7.0, 60 C, Michaelis-Menten fit.; assay type: biochemical
# Procedure: (§1) All inhibition assays were performed in triplicate.
# [10] = substrate: Cc1ccc(O)c(O)c1; experiment: Spectrophotometric phenol oxidase assay without H2O2 at pH 7.0 and 60 °C, initial rates fitted to the Michaelis-Menten equation.; assay type: biochemical
# Procedure: as §1
# [11] = substrate: Oc1ccc(O)cc1; experiment: as above; assay type: biochemical
# Procedure: as §1
# [12] = substrate: CC(C)(C)c1ccc(O)c(O)c1; experiment: as above; assay type: biochemical
# Procedure: as §1
# [13] = substrate: CCn1c(=NN=c2sc3cc(S(=O)(=O)O)ccc3n2CC)sc2cc(S(=O)(=O)O)ccc21; experiment: purified protein, by the assay type; settings: 60.0 °C
# Sequence of CATPO T188F variant (M4GGR5 entry or part of it T207F): as the sequence (M4GGR5 entry or part of it T207D) above
Molecule,Ki [1],Ki [2],Ki [3],Ki [4],Ki [5],Ki [6],"inhibition type ([6]; catechol oxidase activity of wild-type CATPO, Lineweaver–Burk)",Ki [7],Ki [8],Km [9],kcat [9],kcat/Km [9],Km [10],Km [11],Km [12],Km [13]
"O=C(NO)c1ccccc1O [Salicylhydroxamic acid, salicylhydroxamic acid]",5.5 ± 0.7 mM,5.4 ± 0.4 mM,2 ± 0.4 mM,5.4 ± 0.5 mM,2.2 ± 0.4 mM,2.2 ± 0.4 mM,competitive,5.4 ± 0.9 mM,6.7 ± 1.1 mM,,,,,,,
"T188F (Mycothermus thermophilus; T207F) (protein, recombinant, pET-28-TEV-CATPO; contains heme b; Rz 0.8) TCPFADPAALYSRQDTTSGQSPLAAYEVDDSTGYLTSDVGGPIQDQTSLKAGIRGPTLLEDFMFRQKIQHFDHERVPERAVHARGAGAHGTFTSYADWSNITAASFLNATGKQTPVFVRFSTVAGSRGSADTARDVHGFATRFYTDEGNFDIVGNNIPVFFIQDAIQFPDLIHSVKPRPDNEIPQAAFAHDSAWDFFSQQPSTMHTLFWAMSGHGIPRSYRHMDGFGVHTFRFVKDDGSSKLIKWHFKSRQGKASLVWEEAQVLSGKNADFHRQDLWDAIESGNGPEWDVCVQIVDESQAQAFGFDLLDPTKIIPEEYAPLTKLGLLKLDRNPTNYFAETEQVMFQPGHIVRGIDFTEDPLLQGRLFSYLDTQLNRNGGPNFEQLPINMPRVPIHNNNRDGAGQMFIHRNKYPYTPNTLNSGYPRQANQNAGRGFFTAPGRTASGALVREVSPTFNDHWSQPRLFFNSLTPVEQQFLVNAMRFEISLVKSEEVKKNVLTQLNRVSHDVAVRVAAAIGLGAPDADDTYYHNNKTAGVSIVGSGPLPTIKTLRVGILATTSESSALDQAAQLRTRLEKDGLVVTVVAETLREGVDQTYSTADATGFDGVVVVDGAAALFASTASSPLFPTGRPLQIFVDAYRWGKPVGVCGGKSSEVLDAADVPEDGDGVYSEESVDMFVEEFEKGLATFRFTDRFALDS",,,,,,,,,,30 ± 1.0 mM,30600 ± 1800 s⁻¹,1.02e+06 ± 22000 M⁻¹ s⁻¹,32 ± 1.0 mM,42 ± 1.0 mM,34 ± 0.4 mM,45 ± 0.5 mM
"E484A (Mycothermus thermophilus; E503A) (protein, recombinant, pET-28-TEV-CATPO; contains heme b; Rz 0.8) TCPFADPAALYSRQDTTSGQSPLAAYEVDDSTGYLTSDVGGPIQDQTSLKAGIRGPTLLEDFMFRQKIQHFDHERVPERAVHARGAGAHGTFTSYADWSNITAASFLNATGKQTPVFVRFSTVAGSRGSADTARDVHGFATRFYTDEGNFDIVGNNIPVFFIQDAIQFPDLIHSVKPRPDNEIPQAATAHDSAWDFFSQQPSTMHTLFWAMSGHGIPRSYRHMDGFGVHTFRFVKDDGSSKLIKWHFKSRQGKASLVWEEAQVLSGKNADFHRQDLWDAIESGNGPEWDVCVQIVDESQAQAFGFDLLDPTKIIPEEYAPLTKLGLLKLDRNPTNYFAETEQVMFQPGHIVRGIDFTEDPLLQGRLFSYLDTQLNRNGGPNFEQLPINMPRVPIHNNNRDGAGQMFIHRNKYPYTPNTLNSGYPRQANQNAGRGFFTAPGRTASGALVREVSPTFNDHWSQPRLFFNSLTPVEQQFLVNAMRFAISLVKSEEVKKNVLTQLNRVSHDVAVRVAAAIGLGAPDADDTYYHNNKTAGVSIVGSGPLPTIKTLRVGILATTSESSALDQAAQLRTRLEKDGLVVTVVAETLREGVDQTYSTADATGFDGVVVVDGAAALFASTASSPLFPTGRPLQIFVDAYRWGKPVGVCGGKSSEVLDAADVPEDGDGVYSEESVDMFVEEFEKGLATFRFTDRFALDS",,,,,,,,,,30 ± 1.0 mM,,1.45e+06 ± 13000 M⁻¹ s⁻¹,33 ± 1.0 mM,43 ± 1.2 mM,33 ± 0.5 mM,46 ± 1.0 mM
"E484D (Mycothermus thermophilus; E503D) (protein, recombinant, pET-28-TEV-CATPO; contains heme d; Rz 0.8) TCPFADPAALYSRQDTTSGQSPLAAYEVDDSTGYLTSDVGGPIQDQTSLKAGIRGPTLLEDFMFRQKIQHFDHERVPERAVHARGAGAHGTFTSYADWSNITAASFLNATGKQTPVFVRFSTVAGSRGSADTARDVHGFATRFYTDEGNFDIVGNNIPVFFIQDAIQFPDLIHSVKPRPDNEIPQAATAHDSAWDFFSQQPSTMHTLFWAMSGHGIPRSYRHMDGFGVHTFRFVKDDGSSKLIKWHFKSRQGKASLVWEEAQVLSGKNADFHRQDLWDAIESGNGPEWDVCVQIVDESQAQAFGFDLLDPTKIIPEEYAPLTKLGLLKLDRNPTNYFAETEQVMFQPGHIVRGIDFTEDPLLQGRLFSYLDTQLNRNGGPNFEQLPINMPRVPIHNNNRDGAGQMFIHRNKYPYTPNTLNSGYPRQANQNAGRGFFTAPGRTASGALVREVSPTFNDHWSQPRLFFNSLTPVEQQFLVNAMRFDISLVKSEEVKKNVLTQLNRVSHDVAVRVAAAIGLGAPDADDTYYHNNKTAGVSIVGSGPLPTIKTLRVGILATTSESSALDQAAQLRTRLEKDGLVVTVVAETLREGVDQTYSTADATGFDGVVVVDGAAALFASTASSPLFPTGRPLQIFVDAYRWGKPVGVCGGKSSEVLDAADVPEDGDGVYSEESVDMFVEEFEKGLATFRFTDRFALDS",,,,,,,,,,35 ± 0.5 mM,7400 ± 296 s⁻¹,210000 ± 10500 M⁻¹ s⁻¹,36 ± 0.1 mM,46 ± 0.8 mM,38 ± 0.5 mM,53 ± 1.0 mM
